Experimental data as given in paper PMC5340008 (BMC Biochemistry, 2017).
pKi: −log10 of the molar value.

Target: Bacillus anthracis Bla1 β-lactamase (Bacillus anthracis)

Chain of BLIP [change] (P35804 37-201 Y86A): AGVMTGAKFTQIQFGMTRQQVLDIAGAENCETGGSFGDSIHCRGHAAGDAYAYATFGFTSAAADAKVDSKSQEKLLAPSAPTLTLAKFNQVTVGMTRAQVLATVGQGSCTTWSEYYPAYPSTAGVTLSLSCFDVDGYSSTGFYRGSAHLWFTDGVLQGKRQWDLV

## BLIP [change] (from UniProt P35804 37-201) (natural protein)
  pKi: 8.92
